Target: T1, latent 65 kDa heparanase (Hpa65) (UniProt Q9Y251 36-543, limits assumed)
T1 construct: Single-chain latent 65 kDa form coated on the ELISA plate; also called recombinant 65 kDa latent pro-heparanase; pro-heparanase
T1 sequence (looked up): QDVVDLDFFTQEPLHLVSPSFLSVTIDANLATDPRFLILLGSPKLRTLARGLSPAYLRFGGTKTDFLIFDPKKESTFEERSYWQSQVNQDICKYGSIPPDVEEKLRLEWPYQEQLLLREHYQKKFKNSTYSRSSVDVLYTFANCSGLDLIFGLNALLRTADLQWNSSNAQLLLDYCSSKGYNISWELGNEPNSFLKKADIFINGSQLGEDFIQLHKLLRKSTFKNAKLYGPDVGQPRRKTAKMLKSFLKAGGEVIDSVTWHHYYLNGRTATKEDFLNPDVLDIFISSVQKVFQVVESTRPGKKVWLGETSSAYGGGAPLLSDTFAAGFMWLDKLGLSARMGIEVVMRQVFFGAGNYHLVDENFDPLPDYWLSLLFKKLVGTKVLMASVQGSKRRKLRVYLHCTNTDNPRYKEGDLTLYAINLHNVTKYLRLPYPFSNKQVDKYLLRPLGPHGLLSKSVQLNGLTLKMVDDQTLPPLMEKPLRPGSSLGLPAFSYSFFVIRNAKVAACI
Assay: ELISA, antibody titrated on plate coated with latent 65 kDa heparanase
Protocol: An ELISA method was applied to characterize the preferential recognition of heparanase by mAb A54 vs. control mouse IgG (FIG. 2A). For this purpose, microtiter 96-well plate was coated with latent 65 kDa heparanase (Hpa65). Purified (protein G Sepharose) mAb A54 or control mouse IgG were then added at the indicated concentrations and the extent of binding to the immobilized heparanase was determined by ELISA. […] Next, the purified A54 mAb was subjected SDS-PAGE (FIG. 2B) and Western blot (FIG. 2C, Secondary antibody: Goat Anti-Mouse Kappa-HRP) analyses to further characterize the purity, molecular weight and isotype of the antibody light and heavy chains. Lanes M1 and M2: Protein Marker; Lane 1: Reducing condition; Lane 2: Non-reducing condition; Lane P: Mouse IgG1, Kappa as a positive control. (Ab: antibody: Goat Anti-Mouse IgG-HRP). Briefly, mAb A54 was expressed in 293F cells applying the pcDNA3.4 expression vector and serum free (Expi293F) medium. The antibody isotype was characterized as IgG1-Kappa.

B1: mAb A54 (antibody, IgG1, V domains shown)
VH: QVQLQQSGAELAKPGASVRMSCKASGYTFTNYWMHWVKQRPGQGLEWIGYINPTTGYTEYNQKFKDKATLTADKSSSTAYMQLSSLTSEDSAVYYCARGGAGYDYDEDYAMDYWGQGTSVTVSS
VL: DIVLTQSPASLAVSLGQRATISCRASESVEYFGTSYMNWYQQKPGQPPKLLIYLASILESGIPARFSGSGSGTDFTLNIHPVEEEDAATYYCQQSNEDPYTFGGGTKLEIK
notes: Murine monoclonal antibody, IgG1-Kappa; Purified on protein G from hybridoma, also expressed in 293F cells; also called A54 mAb; A54 antibody
**Q.** With B1 as the binder, how does the IC50 read?
**A.** 0.45 nM
